Earlier results, collected in paper PMC7755605.

Target: TRAF6 (Homo sapiens) (UniProt Q9Y4K3)
Sequence (Q9Y4K3 whole entry): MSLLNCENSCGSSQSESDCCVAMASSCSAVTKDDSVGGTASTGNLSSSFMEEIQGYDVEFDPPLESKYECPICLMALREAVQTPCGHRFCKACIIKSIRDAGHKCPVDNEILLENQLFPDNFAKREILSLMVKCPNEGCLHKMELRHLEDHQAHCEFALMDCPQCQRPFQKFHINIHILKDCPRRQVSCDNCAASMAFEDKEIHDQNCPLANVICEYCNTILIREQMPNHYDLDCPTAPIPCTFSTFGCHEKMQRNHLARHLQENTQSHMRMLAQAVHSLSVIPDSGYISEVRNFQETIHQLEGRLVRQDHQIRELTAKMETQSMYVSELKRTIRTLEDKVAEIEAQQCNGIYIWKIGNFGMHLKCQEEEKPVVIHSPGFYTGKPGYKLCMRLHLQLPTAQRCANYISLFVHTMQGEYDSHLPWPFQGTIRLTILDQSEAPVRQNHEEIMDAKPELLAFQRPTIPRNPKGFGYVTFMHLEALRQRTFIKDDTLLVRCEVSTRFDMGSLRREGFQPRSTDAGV

TRANCE-R, sequence (Q9Y6Q6 30-616): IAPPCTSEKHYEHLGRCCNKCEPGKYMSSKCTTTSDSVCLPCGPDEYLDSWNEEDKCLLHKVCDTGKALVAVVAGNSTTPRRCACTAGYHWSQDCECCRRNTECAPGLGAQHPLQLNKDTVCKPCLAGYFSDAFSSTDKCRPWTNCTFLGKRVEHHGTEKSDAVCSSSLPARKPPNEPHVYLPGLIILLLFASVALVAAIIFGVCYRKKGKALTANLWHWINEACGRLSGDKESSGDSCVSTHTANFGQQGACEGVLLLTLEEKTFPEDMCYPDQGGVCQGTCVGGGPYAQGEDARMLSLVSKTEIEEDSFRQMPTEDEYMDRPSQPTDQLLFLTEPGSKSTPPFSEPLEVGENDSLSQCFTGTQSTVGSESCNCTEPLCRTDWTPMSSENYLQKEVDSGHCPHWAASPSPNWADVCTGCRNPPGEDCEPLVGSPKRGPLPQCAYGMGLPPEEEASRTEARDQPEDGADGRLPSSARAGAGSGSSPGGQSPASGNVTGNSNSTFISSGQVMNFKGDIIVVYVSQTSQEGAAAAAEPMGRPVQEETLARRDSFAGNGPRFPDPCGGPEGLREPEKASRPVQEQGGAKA

Kd: 84 µM
Substance: TRANCE-R (from UniProt Q9Y6Q6)
